# Results as given in paper PMC9241269.
# Biological target: SYT11 (UniProt Q9BT88)
# Experiment: co-IP with anti-Myc, blot for GFP-SYT11
# Settings: reference: Myc-JNK1 wild type
substance,measurement,setting,value
JNK1 (from UniProt P45983) Myc-JNK1 T183A,binding against the reference,sites T183,lost
JNK1 (from UniProt P45983) Myc-JNK1 Y185F,binding against the reference,sites Y185,lost
